This note sets out measurements from CN107773755A.

The target of assay [1] is 抗体BA03-A. Briefly: binding ELISA on coated BA03-A, relative activity vs reference; formulations F1-F11 at T0.
The target of assay [2] is 抗体BA03-A. Briefly: binding ELISA on coated BA03-A, relative activity vs reference; formulations after 4 weeks at 40 C. For orientation: In an ELISA, binding on a coated surface is turned into a signal by an enzyme label.
Assay [3] addresses 抗体BA03-A. The assay is described as follows: binding ELISA on coated BA03-A, relative activity vs reference; formulations after 8 weeks at 2-8 C.
For assay [4], the target named is 抗体BA03-A. Briefly: binding ELISA on coated BA03-A, relative activity vs reference; formulation F3 after 8 weeks at 40 C.
The target in assay [5] is 抗体BA03-A. The assay is described as follows: binding ELISA on coated BA03-A, relative activity vs reference; formulation F7 after 8 weeks at 40 C.
Assay [6] deals with 抗体BA03-A. Briefly: binding ELISA on coated BA03-A, relative activity vs reference; formulation F8 after 8 weeks at 40 C.

B1: 抗体BA03 (重组人源化抗表皮生长因子受体单克隆抗体) (antibody, V domains shown)
VH: QVQLQESGPGLVKPSETLSLTCTVSGFSLSNYDVHWVRQAPGKGLEWLGVIWSGGNTDYNTPFTSRLTISVDTSKNQFSLKLSSVTAADTAVYYCARALDYYDYEFAYWGQGTLVTVSS
VL: EIVLTQSPDFQSVTPKEKVTITCRASQSIGTNIHWYQQKPDQSPKLLIKYASESISGIPSRFSGSGSGTDFTLTINSLEAEDAATYYCQQNNEWPTSFGQGTKLEIK
For the molecule B1, the 生物活性 (Binding elisa, % relative to the reference) in the assay with 抗体BA03-A [1] was in the range of 97.1 to 105%; with 抗体BA03-A [2], 47.3 to 102%. In addition, the 结合活性 (Binding elisa, % relative to the reference) with 抗体BA03-A [3] fell in the range of 93.3 to 111%. The 活性 (Binding elisa, % relative to the reference) with 抗体BA03-A [4] amounted to 89.7%; in the assay with 抗体BA03-A [5] it was 55.2%; with 抗体BA03-A [6] it was 91.7%.
